Experiments:
[1] = system: fLuc+ OCIM1 cells; experiment: AML model in NSG mice, treatment the day after cell injection; type: in vivo; conditions: for tumor (bioluminescence) signal: 1 mg/kg or 5 mg/kg i.v. the day after OCIM1 injection; for mice developing tumor / tumor signal: 1 mg/kg or 5 mg/kg i.v., cohorts of 5 mice
Protocol: (§1) NSG mice were transplanted with 7.5×10^6 luciferase expressing fLuc+ OCIM1 cells i.v. On the following day, unconjugated rat IgG2b antibodies or ADCs were injected i.v. via a tail vein at a dose of 1 mg/kg or 5 mg/kg. Mice were regularly monitored for signs of morbidity for the duration of the experiment. For imaging, mice were injected intraperitoneally with 200 μl of 15 mg/mL D-luciferin (Regis Technologies) in PBS. Mice were subsequently anesthetized with 4% isoflurane and maintained at 2% isoflurane. Ten minutes after injection of D-luciferin, mice were placed with anterior side up inside a IVIS Lumina III (PerkinElmer). A sub-saturating image was captured using the auto-exposure setting in the Living Image software (v4.5). Quantification and preparation of images was also carried out using the same software.

[2] = Dosimetry in non-humanised NSG mice; type: in vivo; conditions: non-humanised NSG mice, monitored 2 weeks
Protocol: For dosimetry in non-humanised NSG mice, adult NSG mice were injected intravenously via the tail vein with unconjugated Mab or ADC up to 5 mg/kg. Mice regularly monitored over a period of 2 weeks for any signs of morbidity. Mice were culled if rapid weight loss (>15%) occurred over a period of 2 days.

[3] = system: OCIM1 (CD45+); experiment: Cell viability assay 72 h (PrestoBlue), OCIM1; type: cell-based, human; conditions: drug-linker B1
Protocol: (§2) OCIM1, Jurkat and Nalm6 cells were seeded at 0.5×10^5/mL were cultured for 72 hours in presence of Mab or ADC or medium (in triplicate wells) in wells of flat bottom 96-well plates. 293T cells were seeded at 9.3×10^3 cells per well in flat bottom 96-well plates and allowed to adhere the plate for up to 24 hours. 293T cells were subsequently cultured with Mab or ADC or medium (in triplicate wells) for 72 hours. PrestoBlue® Cell viability Reagent (Thermo Fisher Scientific) was added to each and incubated for up to 1.5 hours. Fluorescence intensity from each well was detected using a FLUOstar OPTIMA microplate reader (BMG Labtech). Data points are mean±s.d. for representative experiments.

[4] = system: fLuc+ OCIM1 cells; experiment: Established AML model in NSG mice, treatment 10 days post-injection; type: in vivo; conditions: cohorts of 5 mice, all tumor-bearing
Protocol: as §1, with “7.5×10^6” for “7.5×10^6 luciferase expressing”, “At 10 days post-injection of AML cells,” for “On the following day,”, “antibody” for “rat IgG2b antibodies”

[5] = system: human CD45+ cells; experiment: Allogeneic stem cell transplant model in humanized NSG mice (YTH24.5-B1 conditioning); type: in vivo; conditions: 1 mg/kg
Protocol: Adult NSG mice (Charles River Laboratories) were sublethally irradiated with 2.5 Gy in a ^137Cs irradiator. On the following day, mice were injected with 0.5×10^6 freshly thawed cryopreserved human CD34+ cells from a health donor were injected via the tail vein in 150 μL PBS using a 29 gauge MicroFine Plus insulin syringe (BD). Engraftment of human cells in the blood was assessed periodically from 6 weeks after transplantation. At 10 weeks post-transplant, humanized NSG mice were assigned into cohorts with similar median human CD45+ cell engraftment in the blood, as determined by flow cytometry. Mice were injected with PBS or 1 mg/kg YTH24.5-B1. Sixteen 16 days after treatment, mice were transplanted with 0.5×10^6 GFP+CD34+ cells from another healthy donor. Irradiated NSG […] were also transplanted with the GFP+CD34+ from the allogeneic healthy donor as a control for engraftment of the GFP+CD34+ cells. 8 weeks after transplantation of GFP+ cells, mice were culled and blood, spleen and bone marrow taken for analysis by flow cytometry.

[6] = system: Jurkat (CD45+); experiment: Cell viability assay 72 h (PrestoBlue), Jurkat; type: cell-based, human; conditions: drug-linker B1
Protocol: as §2

[7] = system: human CD45+ cells; experiment: Depletion of human CD45+ cells in humanised NSG mice; type: in vivo
Protocol: Adult female NSG mice were sublethally irradiated with 2.5 Gy on the day before transplantation (day −57). Cryopreserved purified CD34+ cells from mobilized peripheral blood from a normal donor were thawed and 0.5×10^6 cells in PBS were injected intravenously into the tail vein of mice (day −56). Human engraftment (human CD45+ cells) in the blood of mice was assessed at day −14 and day −1. Mice were assigned to treatment cohorts so that the median human CD45+ engraftment in the blood between the cohorts was as similar as possible. Mice were injected with 0.3 mg/kg or 1 mg/kg Mab or ADC intravenously via the tail vein. Blood samples were taken after 7 days and analysed by flow cytometry. The bone marrow, blood and spleen of mice were analysed at two weeks post-treatment.

B1: YTH24.5-B1: rat IgG2b anti-CD45 antibody YTH24.5 conjugated to cleavable PBD drug-linker B1 (drawing 43) (conjugate)
heavy: QVNLLQSGAALVKPGASVKLSCKASSYTFTDYYIHWVKQSHGKTLEWIGYINPKSGFTNYNEKFRRKATLTVDKSTNTAYMDISRLTSEDSATYYCTRRTGVIPMDAWGQGASVTVSSAQTTAPSVYPLAPGCGDTTSSTVTLGCLVKGYFPEPVTVTWNSGALSSDVHTFPAVLQSGLYTLTSSVTSSTWPSQTVTCNVAHPASSTKVDKKVERRNGGIGHKCPTCPTCHKCPVPELLGGPSVFIFPPKPKDILLISQNAKVTCVVVDVSEEEPDVQFSWFVNNVEVHTAQTQPREEQYNSTFRVVSALPIQHQDWMSGKEFKCKVNNKALPSPIEKTISKPKGLVRKPQVYVMGPPTEQLTEQTVSLTCLTSGFLPNDIGVEWTSNGHIEKNYKNTEPVMDSDGSFFMYSKLNVERSRWDSRAPFVCSVVHEGLHNHHVEKSISRPPGK
light: DVVMTQTPVSLSVSLGGQVSISCRSSQSFVSSDGNTYLNWYLQKPGQSPQLLIYKVSNRLSGVPDRFSGSGSGTDFTLKISRVEHDDLGVYYCGQASKIPLTFGSGTKLEIKRADAAPTVSIFPPSMEQLTSGGATVVCFVNNFYPRDISVKWKIDGSEQRDGVLDSVTDQDSKDSTYSMSSTLSLTKVEYERHNLYTCEVVHKTSSSPVVKSFNRNEC
[1]
  tumor (bioluminescence) signal: Low/absent tumor signal
  mice developing tumor / tumor signal: 1 out of 5
[2]; 0.5 mg/kg i.v.
  Comment (survival / culling): All alive at day 14
[2]; 5 mg/kg i.v.
  Comment (survival / culling): All alive at day 14
[3]
  EC50 values, viability assay, OCIM1 (CD45+): low pM range
[4]
  mice alive at 60 days: 4/5
[5]; 8 weeks after allogeneic GFP+ cells, PBS 37.5%
  mean % hCD45 engraftment in the bone marrow: 9.08%
[5]; PBS 2.1%, irradiation control 41.3%
  percentage GFP+hCD45+ cells of all human CD45+ cells in bone marrow (mean): 29.0%
[5]; PBS 3.7%
  GFP+hCD34+ cells within the human CD34+ compartment in the bone marrow (mean): 56.6%
[6]
  EC50 values, viability assay, Jurkat (CD45+): low pM range
[7]; 0.3 mg/kg i.v.
  Mean % hCD45 levels in blood, 1 week post-treatment: 5.63%
  Mean % hCD45 levels in blood, 2 weeks Post-treatment: 1.75%
[7]; 0.3 mg/kg, two week period
  course of the levels of human CD45+ cells in blood: persistent loss
[7]; 1 mg/kg i.v.
  Mean % hCD45 levels in blood, 1 week post-treatment: 1.08%
  Mean % hCD45 levels in blood, 2 weeks Post-treatment: 0.64%
[7]; group later dosed 0.3 mg/kg
  Mean % hCD45 levels in blood, Pre-treatment: 8.89%
[7]; group later dosed 1 mg/kg
  Mean % hCD45 levels in blood, Pre-treatment: 6.08%

B2: YTH54.12-B1: rat IgG2b anti-CD45 antibody YTH54.12 conjugated to cleavable PBD drug-linker B1 (drawing 43) (conjugate)
heavy: EVQLVESGGGLVQPGGSMKLSCAASGFTFSDYYMAWVRQAPKKGLEWVASMSFAGSSTYYGDSVKGRFTISRDNAKTTLYLQMNSLRSEDTATYYCARMYTTDYYLYWYFDFWGPGTMVTVSSAQTTAPSVYPLAPGCGDTTSSTVTLGCLVKGYFPEPVTVTWNSGALSSDVHTFPAVLQSGLYTLTSSVTSSTWPSQTVTCNVAHPASSTKVDKKVERRNGGIGHKCPTCPTCHKCPVPELLGGPSVFIFPPKPKDILLISQNAKVTCVVVDVSEEEPDVQFSWFVNNVEVHTAQTQPREEQYNSTFRVVSALPIQHQDWMSGKEFKCKVNNKALPSPIEKTISKPKGLVRKPQVYVMGPPTEQLTEQTVSLTCLTSGFLPNDIGVEWTSNGHIEKNYKNTEPVMDSDGSFFMYSKLNVERSRWDSRAPFVCSVVHEGLHNHHVEKSISRPPGK
light: DVQMTQSPSYLAASPGESVSISCKASKSISNYLAWYQQKPGEANKILIYSGSTLQSGTPSRFSGSGSGTDFSLTIRNLEPEDFAVYYCQQYDEKPLTFGSGTKLEIKRADAAPTVSIFPPSMEQLTSGGATVVCFVNNFYPRDISVKWKIDGSEQRDGVLDSVTDQDSKDSTYSMSSTLSLTKVEYERHNLYTCEVVHKTSSSPVVKSFNRNEC
[1]
  tumor (bioluminescence) signal: increasing tumor signal from day 18 onwards
  mice developing tumor / tumor signal: 1 out of 5
[2]; 0.5 mg/kg i.v.
  Comment (survival / culling): All alive at day 14
[2]; 5 mg/kg i.v.
  Comment (survival / culling): All alive at day 14
[3]
  EC50 values, viability assay, OCIM1 (CD45+): low pM range
[6]
  EC50 values, viability assay, Jurkat (CD45+): low pM range
[7]; 0.3 mg/kg i.v.
  Mean % hCD45 levels in blood, 1 week post-treatment: 2.99%
  Mean % hCD45 levels in blood, 2 weeks Post-treatment: 1.31%
[7]; 1 mg/kg i.v.
  Mean % hCD45 levels in blood, 1 week post-treatment: 0.75%
  Mean % hCD45 levels in blood, 2 weeks Post-treatment: 0.38%
[7]; group later dosed 0.3 mg/kg
  Mean % hCD45 levels in blood, Pre-treatment: 5.37%
[7]; group later dosed 1 mg/kg
  Mean % hCD45 levels in blood, Pre-treatment: 6.14%

— patent US20220096654A1, “PYRROLOBENZODIAZEPINE-ANTIBODY CONJUGATES AND USES THEREOF” (ADC THERAPEUTICS SA, priority 2020, published 2022)
